Measured values from paper PMC11549432 (Nature Communications, 2024).
Like-named read-outs stand apart in the source and are kept apart here. One block for each molecule: values may come before it.

How the values were obtained:
[1] = molecular target: ObgE (Obg of E. coli), wild type, N-terminally His6-tagged, purified (E. coli) (UniProt P42641); experiment: MST
[2] = molecular target: ObgE (Obg of E. coli), wild type, N-terminally His6-tagged, purified (E. coli) (UniProt P42641); experiment: MST; remark: listed apart in the source
[3] = molecular target: ObgE (Obg of E. coli), wild type, N-terminally His6-tagged, purified (E. coli) (UniProt P42641); experiment: MST; remark: listed apart in the source
[4] = molecular target: the molecule itself; experiment: SEC-MALS

Sequence of ObgE (Obg of E. coli), wild type, N-terminally His6-tagged, purified (E. coli) (P42641 whole entry): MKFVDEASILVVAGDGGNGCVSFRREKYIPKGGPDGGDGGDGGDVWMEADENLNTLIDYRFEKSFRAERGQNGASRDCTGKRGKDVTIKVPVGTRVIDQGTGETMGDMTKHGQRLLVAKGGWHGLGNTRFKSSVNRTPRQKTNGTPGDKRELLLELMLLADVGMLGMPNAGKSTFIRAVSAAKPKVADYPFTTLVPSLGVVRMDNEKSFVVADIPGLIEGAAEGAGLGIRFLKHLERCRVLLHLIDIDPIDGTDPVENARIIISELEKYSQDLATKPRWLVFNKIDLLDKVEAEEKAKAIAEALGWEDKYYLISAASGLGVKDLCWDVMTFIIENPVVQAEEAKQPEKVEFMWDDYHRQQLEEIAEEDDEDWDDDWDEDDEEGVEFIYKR

- Kd [1]: 47 µM
- Kd [2]: 99 µM
- Kd [3]: 78 µM
Molecule: LpxA wild type (UDP-N-acetylglucosamine acyltransferase), purified (from UniProt P0A722 1-262) (enzyme)

B1: LpxA wild type (UDP-N-acetylglucosamine acyltransferase), purified (enzyme, E. coli, UniProt P0A722 1-262, looked up)
chain: MIDKSAFVHPTAIVEEGASIGANAHIGPFCIVGPHVEIGEGTVLKSHVVVNGHTKIGRDNEIYQFASIGEVNQDLKYAGEPTRVEIGDRNRIRESVTIHRGTVQGGGLTKVGSDNLLMINAHIAHDCTVGNRCILANNATLAGHVSVDDFAIIGGMTAVHQFCIIGAHVMVGGCSGVAQDVPPYVIAQGNHATPFGVNIEGLKRRGFSREAITAIRNAYKLIYRSGKTLDEVKPEIAELAETYPEVKAFTDFFARSTRGLIR
- stoichiometry N [4]: 3
